Data on 1 molecule can be found in patent US20200030416A1 (CASE WESTERN RESERVE UNIVERSITY, published 2020).

The target of the assay is T1, integrin GPIIb-IIIa on ADP-activated human platelets (human, UniProt P08514 32-1039; P05106 27-788).
T1 construct: whole, on cells; no isolated integrin was tested; also called active platelet GPIIb-IIIa
Kind of assay: human platelets (low platelet concentration, ADP) incubated on coverslips coated with cRGD-modified biotinylated liposomes; anti-CD62P fluorescence microscopy.

Experimental: LPC was obtained as described previously and incubated with the construct-coated coverslips for 1 hr in the absence or in presence of platelet agonist ADP, under gentle agitation. Post-incubation, the coverslips were gently washed with PBS to remove loosely-bound platelets from the construct-coated surface. […] These stained coverslips were mounted onto glass slides and the fluorescence of active platelets aggregated onto the coverslips was imaged using inverted fluorescence microscopy. […] Platelet aggregation was quantified as the percentage of coverslip surface area covered by platelet fluorescence. All statistical analysis was performed using ANOVA and significance was considered as p<0.05.

B1: cyclic RGD peptide cyclo-CNPRGDY(OEt)RC (cRGD), conjugated to DSPE-PEG and displayed on liposomes (peptide)
peptide: CNPRGDYRC
modifications: not fully specified; cyclised by a disulphide between the terminal cysteines; Y(OEt) = O-ethyl tyrosine; N-terminus conjugated to DSPE-PEG2000-COOH; many copies on a ~150 nm liposome
notes: Tested only as a multivalent decoration on liposomes (2.5 mol %); also called GBP
For the molecule B1, the binding result is reported as “binds”.
